The target in assay [1] is GST-Nup358 fragment amino acids 2550-2837 (region between Ran-binding domains three and four, without FXFG repeats) (UniProt P49792). The experiment in a line: solid-phase binding assay in microtiter wells.
The target in assay [2] is GST-Nup358 fragment 2500-C (amino acid 2500 to the COOH terminus) (UniProt P49792). As to the kind of experiment: solid-phase binding assay in microtiter wells.

In assay [1], “SUMO-1-modified NΔ419 (RanGAP1 amino acids 420-589) (from UniProt P46061 420-589) (complex)” yielded a fold reduction in binding against the domain containing FXFG repeats (2503-2893) of 5 fold. In assay [2], this substance showed a percent of added protein bound of 20%.

Values taken from article PMC2140169.
